Results: patent US20250042994A1 (HAINAN SIMCERE ZAIMING PHARMACEUTICAL, published 2025)

Tests used:
[1] = biological target: T1, cynomolgus monkey CD19 on peripheral blood B cells (cynomolgus monkey (Macaca fascicularis), UniProt A0A2K5W8L9 20-557); experiment: FACS, cynomolgus PBMC, CD20+ B cells
T1 construct: whole, on cells; also called cynomolgus monkey B cells
T1 sequence: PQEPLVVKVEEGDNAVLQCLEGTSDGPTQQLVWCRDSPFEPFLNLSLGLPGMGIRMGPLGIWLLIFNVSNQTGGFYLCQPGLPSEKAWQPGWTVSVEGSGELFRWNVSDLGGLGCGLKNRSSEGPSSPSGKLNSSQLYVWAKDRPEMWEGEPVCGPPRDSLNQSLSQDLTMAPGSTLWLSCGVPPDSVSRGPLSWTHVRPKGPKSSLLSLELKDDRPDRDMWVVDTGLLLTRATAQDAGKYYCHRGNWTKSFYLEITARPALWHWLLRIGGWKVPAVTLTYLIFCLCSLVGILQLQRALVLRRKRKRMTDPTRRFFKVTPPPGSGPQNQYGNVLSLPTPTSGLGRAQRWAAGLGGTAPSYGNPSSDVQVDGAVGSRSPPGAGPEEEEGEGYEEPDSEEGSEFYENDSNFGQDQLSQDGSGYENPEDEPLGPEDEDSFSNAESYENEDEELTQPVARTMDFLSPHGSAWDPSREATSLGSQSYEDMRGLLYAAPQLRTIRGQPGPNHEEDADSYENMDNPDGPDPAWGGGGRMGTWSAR

[2] = biological target: T2, human CD19 on Raji cells (human, UniProt P15391 20-556); experiment: FACS on Raji cells
T2 construct: whole, on cells
T2 sequence (looked up): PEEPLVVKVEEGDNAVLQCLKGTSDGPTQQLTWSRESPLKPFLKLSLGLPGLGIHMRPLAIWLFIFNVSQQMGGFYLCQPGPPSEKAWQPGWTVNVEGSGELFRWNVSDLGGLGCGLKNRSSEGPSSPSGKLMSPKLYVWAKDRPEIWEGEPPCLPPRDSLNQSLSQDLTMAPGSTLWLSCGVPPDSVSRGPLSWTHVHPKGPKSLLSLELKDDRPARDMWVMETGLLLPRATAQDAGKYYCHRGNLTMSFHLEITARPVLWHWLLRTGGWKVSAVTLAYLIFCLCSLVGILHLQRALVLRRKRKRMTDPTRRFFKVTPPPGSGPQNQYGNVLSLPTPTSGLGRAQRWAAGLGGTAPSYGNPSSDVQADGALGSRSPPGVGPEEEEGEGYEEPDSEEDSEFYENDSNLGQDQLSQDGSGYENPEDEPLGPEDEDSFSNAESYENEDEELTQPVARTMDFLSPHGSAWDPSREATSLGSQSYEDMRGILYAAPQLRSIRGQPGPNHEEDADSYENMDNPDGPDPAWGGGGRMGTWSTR

[3] = biological target: T3, monkey CD19 on HEK293T-monkey CD19 cells (monkey); experiment: FACS on HEK293T-monkey CD19 cells
T3 construct: whole, on cells
In short: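 Cells blocked in PBS + 2% (w/w) BSA at 2×10⁶ cells/ml, then incubated with test antibody on ice for 2 h. After washes, binding read by flow cytometry as mean fluorescence intensity (MFI). EC50 from fitted MFI curves. Parental HEK293T cells run by the same method.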

[4] = biological target: T1, cynomolgus monkey CD19 on peripheral …; experiment: FACS, cynomolgus monkey PBMC, 1 nM antibody, co-stained with CD20 antibody
Procedure: The monkey peripheral blood mononuclear cells were extracted from fresh cynomolgus monkey peripheral blood (purchased from Shanghai Medicilon Inc.) according to the instructions of Ficoll-Paque Plus (purchased from GE Healthcae, catalog number: 171440-02). After the cell suspension was centrifuged, the cells were resuspended in PBS containing 1% BSA, and then the cells were counted. […] The mixture was incubated for 1 h at room temperature. After washing the cells three times, APC-labeled secondary antibody anti-human IgG Fc (catalog number: 409306, purchased from Biolegend) was added. After incubation at room temperature in the dark for 30 minutes, the cells were washed 5 times, gently resuspended with PBS containing 1% BSA, and detected and analyzed by FACS (FACS Canto™, purchased from BD Company), in which CD20 was used as a marker of B cells to gate the CD20-positive B cell population, the proportion of the chimeric antibody-labeled positive cells was analyzed, and the proportion of the chimeric antibody positive cell population to B cell population was calculated after treatments with the chimeric antibodies at the concentrations of 100 nM, 10 nM and 1 nM, respectively.

[5] = biological target: T4, human CD19 on CHO-K1-human CD19 cells (human, UniProt P15391 20-556); experiment: FACS on CHO-K1-human CD19 cells
T4 construct: whole, on cells; also called CHO-K1-human CD19-2C8
T4 sequence (looked up): T2 sequence (looked up)

[6] = biological target: T5, monkey CD19 protein (monkey); experiment: ELISA on coated monkey CD19-His
T5 construct: also called monkey CD19-His protein
Procedure: (§1) Human CD19-his protein (purchased from ACROBiosystems, catalog number: CD9-H52H2) was diluted with PBS to a final concentration of 4 μg/mL, and then added to a 96-well ELISA plate at 100 μl/well. The plate was sealed with a plastic film and incubated overnight at 4° C., the plate was washed 2 times with PBS the next day, and then a blocking solution [PBS+2% (w/w) BSA] was added for blocking at room temperature for 2 h. The blocking solution was poured off, and 100 nM gradiently diluted CD19 chimeric antibody or control antibody was added at 50 μl/well. After incubation at 37° C. for 2 h, the plate was washed 3 times with PBS. […] TMB substrate was added at 50 μl/well, and incubated at room temperature for 10 min, and then a stop solution (1.0 N HCl) was added at 50 μl/well. The OD450 nm values were read by an ELISA microplate reader (Multimode Plate Reader, EnSight, purchased from Perkin Elmer).
(§2) In order to detect the species cross-binding activity of the chimeric antibodies, an ELISA plate was coated with commercial murine CD19 (ACROBiosystems, catalog number: 50510-M08H) and monkey CD19 (ACROBiosystems, catalog number: 90051-C08H), respectively, and the ELISA detection was performed according to the method in example 5.1.

[7] = biological target: T5, monkey CD19 protein; experiment: ELISA, coated monkey CD19 protein
Procedure: as §1, §2

B1: F4.58.6 (antibody, human IgG1, V domains shown)
VH: QVQLQQPGAELVKPGASVKLSCKASGYTFTSYWMHWVKQRPGQGLEWIGEIDPSDSYSNYNQKFKGKATLTVDKSSSTAYMQLSSLTSEDSAVYYCARSNYGSSYGYFDVWGAGTTVTVSS
VL: QIVLTQSPAIMSASPGEKVTMTCSVSSSLSYMHWYQQKPGTSPKRWIYDTSKLASGVPARFSGSGSGTSYSLTISSMEAEDAATYYCHQRSSYPTFGGGTKLEIK
notes: human-murine chimeric antibody, human IgG1
[1]
  Proportion of chimeric antibody positive cells to B cells (%) at 1 nM: 1%
  Proportion of chimeric antibody positive cells to B cells (%) at 10 nM: 2%
  Proportion of chimeric antibody positive cells to B cells (%) at 100 nM: 4%
[2]
  EC50: 1.31 nM
  Maximum mean fluorescence intensity: 26100
[3]
  Maximum mean fluorescence intensity: 81
[4]
  ratio of chimeric antibody-labeled positive cells to CD20 positive cells: 2%
[5]
  EC50: 1.09 nM
  Maximum mean fluorescence intensity: 56700

B2: F3.124.7 (antibody, human IgG1, V domains shown)
VH: EVQLQQSGPVLVKPGASVKMSCKASGYTFTDYYMNWVKQRHGKSLEWIGISNPYNGGTSYNQKFKDKATLTVDKSSSTAYMELNSLTSEDSAVYYCAREGGTAQPTSGMDYWGQGTSVTVSS
VL: NIMMTQSPSSLAVSAGEKVTMSCKSSQSVLYSSNQKNYLAWYQQKPGQSPKLLIYWASTRESGVPDRFTGSGSGTDFTLTISSVQPEDPAVYYCHQYRSSYTFGGGTKLEIK
notes: as for B1
[6]
  EC50 (read off the curve): ~0.04 nM
[1]
  Proportion of chimeric antibody positive cells to B cells (%) at 1 nM: 23%
  Proportion of chimeric antibody positive cells to B cells (%) at 10 nM: 65%
  Proportion of chimeric antibody positive cells to B cells (%) at 100 nM: 92%
[2]
  EC50: 2.46 nM
  Maximum mean fluorescence intensity: 19100
[3]
  EC50: 1.27 nM
  Maximum mean fluorescence intensity: 112000
[7]
  OD450 at 0.0001 nM: 0.08 OD450
  OD450 at 0.001 nM: 0.12 OD450
  OD450 at 0.01 nM: 0.41 OD450
  OD450 at 0.10 nM: 1.44 OD450
  OD450 at 1.00 nM: 1.93 OD450
  OD450 at 10 nM: 2.04 OD450
  OD450 at 100 nM: 1.93 OD450
[5]
  EC50: 1.35 nM
  Maximum mean fluorescence intensity: 47500
